Test results reported in patent publication US20180009843A1.
No end group written: not given here.

T1: CD1d molecule expressed on JAWS2 cells, P11609
T1 chain: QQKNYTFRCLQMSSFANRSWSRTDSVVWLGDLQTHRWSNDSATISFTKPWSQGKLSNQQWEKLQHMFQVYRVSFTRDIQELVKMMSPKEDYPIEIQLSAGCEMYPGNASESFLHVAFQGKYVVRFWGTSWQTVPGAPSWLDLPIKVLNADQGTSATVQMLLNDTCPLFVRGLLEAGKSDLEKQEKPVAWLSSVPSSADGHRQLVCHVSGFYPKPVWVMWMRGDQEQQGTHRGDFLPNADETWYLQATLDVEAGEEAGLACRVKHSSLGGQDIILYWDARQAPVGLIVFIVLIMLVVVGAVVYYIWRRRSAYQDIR


How the values were obtained:
[1] = target: T cell receptors of NKT cells among spleen CD4+ T cells of hemophilia A mice immunized with Factor VIII; test: fluorochrome-labeled tetramer, 30 minutes at 4 C, Facs
[2] = target: T cell receptors of CD4+ NKT cells from the spleen of BALB/c mice given intranasal Der p 1; test: tetramer staining of spleen CD4+ T cells, facs
[3] = target: T1, CD1d molecule expressed on JAWS2 cells, …

| Binder | percentage of cells stained with the tetramers [2] | other results |
| --- | --- | --- |
| FCHISSH (peptide-MHC, part only; not given: peptide flanks, CD1d, beta-2 microglobulin, part only, also: loaded on fluorochrome-labelled CD1d tetramers) [CD1d tetramers loaded with peptide of SEQ ID1 (44pept)] |  | % of NKT cells recognizing the tetramer [1]: < 45% |
| FSGVAAT (peptide-MHC, part only; not given: CD1d and beta-2 microglobulin, part only) [CD1d tetramers loaded with peptide of SEQ ID13] | 10% |  |
| Der p 1 in natural sequence (SEQ ID17) (protein) TNACSINGNAPAEIDLRQMRTVTPIRMQGGCGSCWAFSGVAATESAYLAYRNQSLDLAEQELVDCASQHGCHGDTIPRGIEYIQHNGVVQESYYRYVAREQSCRRPNAQRFGISNYCQIYPPNVNKIREALAQTHSAIAVIIGIKDLDAFRHYDGRTIIQRDNGYQPNYHAVNIVGYSNAQGVDYWIVRNSWDTNWGDNGYGYFAANIDLMMIEEYPYVVIL |  | production of cytokines such as IFN-gamma and IL-4 as markers of NKT activation [3]: a significant production of cytokines was present |
| mutated Der p 1 (SEQ ID16) (protein) TNACSINGNAPAEIDLRQMRTVTPIRMQGGCGSCWASSGVAATESAYLAYRNQSLDLAEQELVDCASQHGCHGDTIPRGIEYIQHNGVVQESYYRYVAREQSCRRPNAQRFGISNYCQIYPPNVNKIREALAQTSSAIAVIIGIKDLDAFRHYDGRTIIQRDNGYQPNYHAVNIVGYSNAQGVDYWIVRNSWDTNWGDNGYGYFAANIDLMMIEESPYVVIL |  | production of IFN-gamma and IL-4 taken as an indication of NKT activation [3]: NKT cells obtained from mice immunized with natural sequence Der p 1 failed to be activated when incubated in the presence of JAWS2 cells loaded with mutated Der p 1 |
| HSAIAAVI (peptide-MHC, part only; not given: CD1d and beta-2 microglobulin, part only) [CD1d tetramers loaded with peptide of SEQ ID14] | 10% |  |
| YPYVVIL (peptide-MHC, part only; not given: CD1d and beta-2 microglobulin, part only) [CD1d tetramers loaded with peptide of SEQ ID15] | 10% |  |
